Experimental data as given in US20080112961A1 (MacroGenics, published 2008).

T1: FcγRIIB (form not stated) (UniProt P31994 43-217, limits assumed)
T1 construct: also called FcγRIIB (ELISA)
T1 sequence (looked up): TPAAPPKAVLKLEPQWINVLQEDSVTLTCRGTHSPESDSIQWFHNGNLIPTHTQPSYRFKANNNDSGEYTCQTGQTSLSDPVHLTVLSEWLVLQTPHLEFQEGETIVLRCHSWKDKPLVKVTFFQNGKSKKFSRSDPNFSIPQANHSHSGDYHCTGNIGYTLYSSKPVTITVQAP

T2: FcγRIIB-Fc fusion protein, soluble dimer: extracellular domain of FcγRIIB fused to the hinge-CH2-CH3 domain … (human, UniProt P31994 43-217, limits assumed)
T2 construct: extracellular domain; also called FcRIIB-Fc; 2bfcagl; not shown: human IgG2 hinge-CH2-CH3
T2 sequence (looked up): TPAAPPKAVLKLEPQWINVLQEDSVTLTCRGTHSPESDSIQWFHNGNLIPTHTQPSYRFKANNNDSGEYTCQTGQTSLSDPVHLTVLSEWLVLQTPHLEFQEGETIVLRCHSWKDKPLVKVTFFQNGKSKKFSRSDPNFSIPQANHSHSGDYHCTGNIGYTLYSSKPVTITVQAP

B1: ch4-4-20 G316D, A378V, D399E (antibody)
heavy: ASTKGPSVFPLAPSSKSTSGGTAALGCLVKDYFPEPVTVSWNSGALTSGVHTFPAVLQSSGLYSLSSVVTVPSSSLGTQTYICNVNHKPSNTKVDKKVEPKSCDKTHTCPPCPAPELLGGPSVFLFPPKPKDTLMISRTPEVTCVVVDVSHEDPEVKFNWYVDGVEVHNAKTKPREEQYNSTYRVVSVLTVLHQDWLNDKEYKCKVSNKALPAPIEKTISKAKGQPREPQVYTLPPSRDELTKNQVSLTCLVKGFYPSDIVVEWESNGQPENNYKTTPPVLESDGSFFLYSKLTVDKSRWQQGNVFSCSVMHEALHNHYTQKSLSLSPGK
B2: ch4-4-20 MgFc39 (E293V, Q295E, A327T) (antibody)
heavy: ASTKGPSVFPLAPSSKSTSGGTAALGCLVKDYFPEPVTVSWNSGALTSGVHTFPAVLQSSGLYSLSSVVTVPSSSLGTQTYICNVNHKPSNTKVDKKVEPKSCDKTHTCPPCPAPELLGGPSVFLFPPKPKDTLMISRTPEVTCVVVDVSHEDPEVKFNWYVDGVEVHNAKTKPRVEEYNSTYRVVSVLTVLHQDWLNGKEYKCKVSNKTLPAPIEKTISKAKGQPREPQVYTLPPSRDELTKNQVSLTCLVKGFYPSDIAVEWESNGQPENNYKTTPPVLDSDGSFFLYSKLTVDKSRWQQGNVFSCSVMHEALHNHYTQKSLSLSPGK
B3: ch4-4-20 MgFc43 (Y319F, P352L, P396L) (antibody)
heavy: ASTKGPSVFPLAPSSKSTSGGTAALGCLVKDYFPEPVTVSWNSGALTSGVHTFPAVLQSSGLYSLSSVVTVPSSSLGTQTYICNVNHKPSNTKVDKKVEPKSCDKTHTCPPCPAPELLGGPSVFLFPPKPKDTLMISRTPEVTCVVVDVSHEDPEVKFNWYVDGVEVHNAKTKPREEQYNSTYRVVSVLTVLHQDWLNGKEFKCKVSNKALPAPIEKTISKAKGQPREPQVYTLLPSRDELTKNQVSLTCLVKGFYPSDIAVEWESNGQPENNYKTTPLVLDSDGSFFLYSKLTVDKSRWQQGNVFSCSVMHEALHNHYTQKSLSLSPGK

Key:
[1] = molecular target: T1, FcγRIIB (form not stated); assay: ELISA
[2] = molecular target: T3, FcγRIIIA (form not stated) (UniProt P08637 17-208, limits assumed); assay: ELISA
T3 construct: also called FcγRIIIA (ELISA)
T3 sequence (P08637 17-208 F176V limits assumed, form in doubt): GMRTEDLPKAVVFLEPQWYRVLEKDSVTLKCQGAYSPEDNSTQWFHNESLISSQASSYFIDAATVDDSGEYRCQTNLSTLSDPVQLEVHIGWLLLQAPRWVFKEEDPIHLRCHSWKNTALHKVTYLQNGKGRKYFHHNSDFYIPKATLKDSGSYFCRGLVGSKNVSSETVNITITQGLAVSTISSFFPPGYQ

[3] = molecular target: T1, FcγRIIB (form not stated); assay: ELISA; remark: listed apart in the source
[4] = molecular target: T3, FcγRIIIA (form not stated); assay: ELISA; remark: listed apart in the source
[5] = molecular target: T2, FcγRIIB-Fc fusion protein, soluble …; assay: BIAcore, ch4-4-20
Procedure: (§1) Following this, the unreacted active esters were “capped off” with an injection of 1M Et-NH2. Once a suitable surface was prepared, ch 4-4-20 antibodies carrying the Fc mutations were passed over the surface by one minute injections of a 20 μg/mL solution at a […] flow rate. […] Next, dilution series of the receptor (FcγRIIIA and FcγRIIB-Fc fusion protein) in HBS-P buffer (10 mM HEPES, 150 mM NaCl, 0.005% Surfactant P20, 3 mM EDTA, pH 7.4) were injected onto the surface at 100 μL/min Antibody regeneration between different receptor dilutions was carried out by single 5 second injections of 100 mM NaHCO₃ pH 9.4; 3M NaCl.
(§2) Binding curves for two different concentrations (200 nM and 800 nM for FcγRIIIA and 200 nM and 400 nM for FcγRIIB fusion protein) were aligned and responses adjusted to the same level of captured antibodies, and the reference curves were subtracted from the experimental curves. Association and dissociation phases were fitted separately. Dissociation rate constant was obtained for interval 32-34 sec of the dissociation phase; association phase fit was obtained by a 1:1 Langmuir model and base fit was selected on the basis Rₘₐₓ and chi² criteria.
(§3) Secondary Screen of Mutants via BIAcore: Mutants that were selected in the above screens were then analyzed by BIAcore to determine the kinetic parameters for binding FcγRIIIA (158V) and FcγRIIB. The method used was similar to that disclosed in Section 7.1, supra.

[6] = molecular target: T4, FcγRIIIA 158V, soluble monomer (extracellular region joined to linker-AVITAG) (UniProt P08637 17-208, limits assumed); assay: BIAcore, ch4-4-20
T4 construct: extracellular domain; also called 3aV158; 3A 158V
T4 sequence (P08637 17-208 F176V limits assumed): as the sequence (P08637 17-208 F176V limits assumed, form in doubt) above
Procedure: as §1, §2, §3

Row | Binder | fold increase vs WT [1] [x] | fold increase vs WT [2] [x] | ELISA binding, fold vs Wt [3] [X] | ELISA binding, fold vs Wt [4] [X] | Koff WT/Mut [5] [ratio] | Koff WT/Mut [6] [ratio]
1 | B1 | 14 | 1.5 | 14 | 1.5 | – | –
2 | B2 | – | 0.4 | – | 1.4 | 1.3 | 0.86
3 | B3 | – | – | – | – | 2.29 | 1.23
